Reference: the DeepSol protein solubility set

assay: soluble on expression in E. coli; label from the status in PepcDB or PDB records

Row | Sequence | soluble on expression in E. coli
1 | MDFETNEDINGVRFTWNVFPSTRSDANSNVVPVGCLYTPLKEYDELNVAPYNPVVCSGPHCKSILNPYCVIDPRNSSWSCPICNSRNHLPPQYTNLSQENMPLELQSTTIEYITNKPVTVPPIFFFVVDLTSETENLDSLKESIITSLSLLPPNALIGLITYGNVVQLHDLSSETIDRCNVFRGDREYQLEALTEMLTGQKPTGPGGAASHLPNAMNKVTPFSLNRFFLPLEQVEFKLNQLLENLSPDQWSVPAGHRPLRATGSALNIASLLLQGCYKNIPARIILFASGPGTVAPGLIVNSELKDPLRSHHDIDSDHAQHYKKACKFYNQIAQRVAANGHTVDIFAGCYDQIGMSEMKQLTDSTGGVLLLTDAFSTAIFKQSYLRLFAKDEEGYLKMAFNGNMAVKTSKDLKVQGLIGHASAVKKTDANNISESEIGIGATSTWKMASLSPYHSYAIFFEIANTAANSNPMMSAPGSADRPHLAYTQFITTYQHSSGTNRIRVTTVANQLLPFGTPAIAASFDQEAAAVLMARIAVHKAETDDGADVIRWLDRTLIKLCQKYADYNKDDPQSFRLAPNFSLYPQFTYYLRRSQFLSVFNNSPDETAFYRHIFTREDTTNSLIMIQPTLTSFSMEDDPQPVLLDSISVKPNTILLLDTFFFILIYHGEQIAQWRKAGYQDDPQYADFKALLEEPKLEAAELLVDRFPLPRFIDTEAGGSQARFLLSKLNPSDNYQDMARGGSTIVLTDDVSLQNFMTHLQQVAVSGQA | soluble
2 | MGSDKIHHHHHHMSPREVAAPHEVKARLYILDTNVLMHDPSALFRFEEHDILLPMIVLEELDQHKKGLSEQARNVRQVSRYLDEMLTDTADLDRGLVLPYAQGRLYFQTAAHQQALPEDLAGGKADHEILAVTLALQNRHPEKDVILVSKDINLRIKGRTLGIRVEDYQNDRALDDVDLLYTGAETLSADFWDLHSRDLDAWQESGRSYYKISGPAIQRWHSNQFIAINVEEGAPEDFAAIVREVRPEHAIIERITDYRSDRHAVWGILARNPEQNFALNLLMDPDIDFVTLLGHAGTGKTLLTLAAALHQIFEQKRYSEVIITRATVPVGDEIGFLPGTEEEKMLPWMGALEDNLEILARGSDEGGSWGRSATQDLINKRIRVKSMSFMRGRTFLEKFVIIDEAQNLTSKEMKTLITRAGPGTKIVCLGNIAQIDTPYLTETTSGLTYVVDRFKDWAYSGHITLRRGERSRLADFANDAL | not soluble
3 | MAENDGETIVPDEQCNLTASTPMKSSGLEQVESPKERKTSMVECDDEGNPSSGTPDESPKQLTPHSIPPRRRRSPRRPEVSASRLPLKVLNQIFQYLPLKDLRSAMLTCHSWNNALSMEDSDIWQYLLGKKLPEAAVSDPFLLAELGSAKKKLRAWYFAWNTSDISRNNYIRTNGFTVHRQPVAQSTDGVRGKRGISKGVHAFDITWDGPLGTVAVVGIATKHAALHCVGYVALLGSDDQSWGWNLVDNVLMHNGAQLGVYPKMNNPPKYEVGDKIRLIIDCDTHVAYFERNSEFLGIAFNHIPPLRLYPAVCAVYGNTEVTMVYVGSPQMG | not soluble
4 | MNVGLSAEVRYHWFREHLVVVGDWHRLSPSERDRLRHQPMPDEAAQSLRVDLSPWSCGMVFSELLGADLTRFGLCYLAPAEVPASDLTRLGRRLREEFPLLDSQVDSGAEGFELVVHGQPEESPALEVGPFADENALIAALLQRPHSLFERGLLRLFHGRCGGRARWGVWLHHLVADADFASVLLARLAVLNADPTTEAAAPEFGFLQQQWRLERQLRERRTRLEDYWSERGEAFRELASLPWAERASHCEDFRLAATPGGGEAALLTRLACALALALASQGATGKVLALTPVSLRSRRGTAVSGCWLNLVPLLLDAATAEDTFERHRLEAFEHSLLPAEAIAERAGLRYADAQVMINVIDQPFHSAGFIHRPTLKSRLPLTLTLVRRDDGGWDASLASRFGRERTLALAAAMAEALRPC | not soluble
5 | MLMPRRMKYRKQQRGRLKGATKGGDYVAFGDYGLVALEPAWITAQQIEAARVAMVRHFRRGGKIFIRIFPDKPYTKKPLEVRMGKGKGNVEGYVAVVKPGRVMFEVAGVTEEQAMEALRIAGHKLPIKTKIVRRDAYDEAQ | soluble
6 | GMDVFSEYLAGIADPFHRERTEEVLTWIKNKYPNLHTEIKWNQPMFTDHGTFIIGFSVSKKHLAVAPEKVTIAHVEDDIVKAGYDYTEQLIRIPWNGPVDYTLLEKMIEFNILDKADCSTFWRK | soluble
7 | MGSDKIHHHHHHMLLSRVAESLYWINRYLERAENISRFVEVSESMALDCPPGSAEPWLPLVDASGDRNKFDESYLNKTPSDVANFLIKDRENPNSILSCICMARENARQIRDVITSEMWEQINSLYWSIQEGEVIWHQPAQEQLFEIRRGCQLFYGVTDATFSHDIAWNFSKLGRLIERADKTSRILDVKYFLLLPNLKELGGALDELQWISLLRSAGAYQMFRISEQGSITPNAIASFLLLDPIFPRSVRFCLEGINESLSKIQNSPVSKKPNDLECLIGLLLSKWSFVRIDHLIKDGLHEAIDSLQIDLNKLHDLIHGIYFRNDKKFDFESLQG | not soluble
8 | EFSMEDLIPLVNRLQDAFSAIGQNADLDLPQIAVVGGQSAGKSSVLENFVGRDFLPRGSGIVTRRPLVLQLVNATTEYAEFLHCKGKKFTDFEEVRLEIEAETDRVTGTNKGISPVPINLRVYSPHVLNLTLVDLPGMTKVPVGDQPPDIEFQIRDMLMQFVTKENCLILAVSPANSDLANSDALKVAKEVDPQGQRTIGVITKLDLMDEGTDARDVLENKLLPLRRGYIGVVNRSQKDIDGKKDITAALAAERKFFLSHPSYRHLADRMGTPYLQKVLNQQLTNHIRDTLPGLRNKLQSQLLSIEKEVEEYKNFRPDKHGTDSRVDEMLRMYHALKEALSIIGNIN | soluble
9 | MGSDKIHHHHHHMNTKVMTAIPFTIDRDWLFTHLHIKPGKPYVEDVENMIEQALTIGKPKAAYRLAYIESKGEDFVVVDGFKFTSRVLRVNLAETFKVVPYVITCGEELERWAKTFHHMFESYCADGIMEAVMHSARVAFFSQIAEEYNLGHAVNMNPGSLEDWPLKEQAPLFQLLGDVKSLIGVELKESFLMSPIKTVSGFRFSKEGSYENCQLCPREKCPGRRAPYEQNLYAEKYQLK | not soluble
10 | MTMRFSVLASGSTGNAFYIETDRQRLLVDAGLSGKQLEELFAEIGRHPKQLDALLVTHEHSDHIKGLGVLARKYRLPVYANEKTWRAMEQAVGDIPPEQKFVFPLGAVRTFGDVDVESFGVSHDAAEPMFYVFHYEGKKLALLTDTGYVSERIKKTIENADVFVFESNHDVGMLRMGRYPWSVKRRILSDVGHISNEEAGLALADVIGDRTKQIYLAHLSQDNNMKELARMTVTQVLEQKGLAVGARFRLYDTDPRRATALAYV | not soluble
11 | MSDAATRRLMKELAQLKSEAPEGLLVDNTSTSNDLKQWKIGVVGAEGTLYAGEVFMLQFTFGPQYPFNSPEVMFVGETIPAHPHIYSNGHICLSILSDDWTPALSVQSVCLSILSMLSSSKEKKHPIDDAIYVRTCSKNPSKTRWWFHDDSV | not soluble
12 | MGHHHHHHSHMGFYLGITALKSIGNNKNNNIDNENNHQAKILTFPVSFTCRTFLPARGDILQGTVKKVLWNGAFIRSGPLRYAYLSLLKMPHYHYVHSPLSEDEKPHFQKDDLSKIAVGVVVRFQVLAVRFKERPHKRRNDYYVLATLEGNGSFGP | soluble
13 | MSYDICIIGSGAGASPIAHQLSKAGAKVLVLEKGPWLTEKEFFKDELTISIHDAYNPKLTDEQHVIEEEYFDENDKPFWQGEKTSDSGWSWWNGNVVGGSSNFMSGYFHRLKPIDFRLKSEFGAISGANVEDWPISYDELEPYYAKVEREVGVSGRVVEHPHQEPRSTDFPYPPIAELPMSSWIDKAAQKIGYHAIPVPRAILSKPAMGRRSCEYSGYCSSYGCASGAKGSGRAALLNNAVASGNCTIQANAKVYKIATDKQGEITGVHYYDKIGRKKSVTAKIYVVACQAVETSRLLLASTGEKFPQGLANNNGQVGKNLLFSGGGTGQGDFNYADLSDKQVGELKQVGPFINRALQDWYQIADKSFTGANAKGQAKGGTIDFLFHQNPIARARGTQWGSDQNGDDKLLWGEDLKQSLKTEFTSYKTLRFEVFNDWLPTDDCFVSLDNEVTDQWGDPVAKVRIGYHDHDLEVGEYLSKKAEKLLEALGAKNVSSSVSGYPSTNLMAGGCRFGNDPKTSVLNKTCQAHEVDNLYVTDGSFMPTGGSVPYTFTIYANAFRVADKIKAHWLTLKSLEHHHHHH | not soluble
